Source: PMC9654404, “Functional Characterization and Screening of Promiscuous Kinases and Isopentenyl Phosphate Kinases for the Synthesis of DMAPP via a One-Pot Enzymatic Cascade” (International Journal of Molecular Sciences, 2022)

Key:
[1] = substrate: CC(C)=CCO; test: ADP formation, ADP colorimetric/fluorometric assay kit, Michaelis-Menten fit; type: biochemical, Shigella flexneri; conditions: ATP co-substrate, 2 mM MgCl2, 50 mM buffer, optimal conditions (optimum pH 9.0, 55 °C), apparent Km
purified protein [2] = substrate: CC(C)=CCOP(=O)(O)O; test: purified protein; conditions: ATP co-substrate, 2 mM MgCl2, 50 mM buffer, DMAP made enzymatically with SfPK, apparent Km
purified protein [3] = substrate: CC(C)=CCO; test: purified protein; conditions: ATP co-substrate, 2 mM MgCl2, 50 mM buffer, optimal conditions (optimum pH 7.5, 30 °C), apparent Km, 30.0 °C
[4] = substrate: CC(C)=CCO; test: ADP formation, ADP colorimetric/fluorometric assay kit, Michaelis-Menten fit; type: biochemical, Escherichia coli; conditions: ATP co-substrate, 2 mM MgCl2, 50 mM buffer, optimal conditions (optimum pH 5.5, 50 °C), apparent Km

B1: SfPK (Shigella flexneri promiscuous kinase) (Shigella flexneri) (protein)
chain: SIPPGNDVTTKPDLYYLTNDNAIDSLALLPPPPQIGSIAFLNDQAMYEKGRLLRNTERGKLAAEDANLSSGGVANVFSAAFGSPITAKDSPELHKLLTNMIEDAGDLATRSAKEYYMRIRPFAFYGVSTCNTKEQDTLSRNGSYPSGHTSIGWATALVLSEINPARQDTILKRGYELGDSRVICGYHWQSDVDAARIVGSAIVATLHSNPVFQAQLQKAKDEFANNQKK
For B1, which Km [1] is on record?
Its Km is 16 µM.

B2: MtIPK (Methanolobus tindarius isopentenyl phosphate kinase) (Methanolobus tindarius DSM 2278) (protein)
chain: MDNNNITILKIGGSVITDKSADDGTARLSEIERIAAEISGFEGKLIIVHGAGSFGHPQVKRFGLTGKFDHEGSIITHMSVRKLNTMVVETLNSAGINALPVHPMACAISSNSRIKSMFREQIEEMLANGFVPVLHGDMVMDTDLGTSVLSGDQIVPYLAIQMKASRIGIGSAEEGVLDDKGGVIPLINNENFDEIKAYLSGSANTDVTGGMLGKVLELLELSEQSNSTSYIFNAGNTGNISDFLSGKNIGTAIGAGTI
B2 was tested. Which Km (purified protein [2]; optimal conditions (optimum pH 7.5, 35 °C), 35.0 °C) did it give?
Its Km is 65 µM.

B3: ScPK (Saccharomyces cerevisiae promiscuous kinase) (Saccharomyces cerevisiae S288C) (protein)
chain: MVQESRPGSVRSYSVGYQARSRSSSQRRHSLTRQRSSQRLIRTISIESDVSNITDDDDLRAVNEGVAGVQLDVSETANKGPRRASATDVTDSLGSTSSEYIEIPFVKETLDASLPSDYLKQDILNLIQSLKISKWYNNKKIQPVAQDMNLVKISGAMTNAIFKVEYPKLPSLLLRIYGPNIDNIIDREYELQILARLSLKNIGPSLYGCFVNGRFEQFLENSKTLTKDDIRNWKNSQRIARRMKELHVGVPLLSSERKNGSACWQKINQWLRTIEKVDQWVGDPKNIENSLLCENWSKFMDIVDRYHKWLISQEQGIEQVNKNLIFCHNDAQYGNLLFTAPVMNTPSLYTAPSSTSLTSQSSSLFPSSSNVIVDDIINPPKQEQSQDSKLVVIDFEYAGANPAAYDLANHLSEWMYDYNNAKAPHQCHADRYPDKEQVLNFLYSYVSHLRGGAKEPIDEEVQRLYKSIIQWRPTVQLFWSLWAILQSGKLEKKEASTAITREEIGPNGKKYIIKTEPESPEEDFVENDDEPEAGVSIDTFDYMAYGRDKIAVFWGDLIGLGIITEEECKNFSSFKFLDTSYL
With B3 as the protein, how does the Km (purified protein [3]) read?
Its Km is 1250 µM.

B4: MthIPK (Methanothermobacter thermautotrophicus isopentenyl phosphate kinase) (Methanothermobacter thermautotrophicus str. Delta H) (protein)
chain: MIILKLGGSVITRKDSEEPAIDRDNLERIASEIGNASPSSLMIVHGAGSFGHPFAGEYRIGSEIENEEDLRRRRFGFALTQNWVKKLNSHVCDALLAEGIPAVSMQPSAFIRAHAGRISHADISLIRSYLEEGMVPVVYGDVVLDSDRRLKFSVISGDQLINHFSLRLMPERVILGTDVDGVYTRNPKKHPDARLLDVIGSLDDLESLDGTLNTDVTGGMVGKIRELLLLAEKGVESEIINAAVPGNIERALLGEEVRGTRITGKH
Which Km (purified protein [2]; optimal conditions (optimum pH 7.5, 30 °C), 30.0 °C) does the source give for B4 here?
The Km was 116 µM.

B5: EcPK (Escherichia coli promiscuous kinase) (Escherichia coli K-12) (protein)
chain: MQVDLLGSAQSAHALHLFHQHSPLVHCMTNDVVQTFTANTLLALGASPAMVIETEEASQFAAIASALLINVGTLTQPRAQAMRAAVEQAKSSQTPWTLDPVAVGALDYRRHFCHELLSFKPAAIRGNASEIMALAGIANGGRGVDTTDAAANAIPAAQTLARETGAIVVVTGEMDYVTDGHRIIGIHGGDPLMTKVVGTGCALSAVVAACCALPGDTLENVASACHWMKQAGERAVARSEGPGSFVPHFLDALWQLTQEVQA
How did the Km [4] turn out when B5 was run?
The Km was 930 µM.
